Experimental data as given in the supplement of paper PMC9112550, “Optimization of the antimicrobial peptide Bac7 by deep mutational scanning” (BMC Biology, 2022).

tested on: Escherichia coli TOP10; assay: shrunken log2 fold change of peptide-encoding DNA abundance (4.5 h post-induction vs induction); higher = less antimicrobial activity (less host growth inhibition); conditions: time post-induction: 4.5 h; library: site-saturation at positions 5, 18, 19, 20
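Further: peptides expressed intracellularly from a pBAD plasmid library in pooled LB shake-flask culture, induced with 0.3% L-arabinose, DNA abundance read by NGS, three biological replicates, DESeq2 with apeglm shrinkage.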

**Q.** RRIRYRPPRLPRPRPRPFFPPRP was tested. Which “shrunken log2 fold change” value did it give?
**A.** -0.682

**Q.** With RRIRTRPPRLPRPRPRPNNGPRP as the sequence, how does the “shrunken log2 fold change” value read?
**A.** -0.602

**Q.** RRIRARPPRLPRPRPRPRAQPRP was tested. Which “shrunken log2 fold change” value did it give?
**A.** 0.465

**Q.** For RRIRLRPPRLPRPRPRPQHFPRP, which “shrunken log2 fold change” value is on record?
**A.** -0.343

**Q.** With RRIRVRPPRLPRPRPRPYWKPRP as the sequence, how does the “shrunken log2 fold change” value read?
**A.** -0.074

**Q.** How did the “shrunken log2 fold change” value turn out when RRIRNRPPRLPRPRPRPGPEPRP was run?
**A.** 0.684

**Q.** How did the “shrunken log2 fold change” value turn out when RRIRYRPPRLPRPRPRPYPRPRP was run?
**A.** -0.097

**Q.** For RRIRWRPPRLPRPRPRPECSPRP, which “shrunken log2 fold change” value is on record?
**A.** 0.966

**Q.** For RRIRYRPPRLPRPRPRPRRQPRP, which “shrunken log2 fold change” value is on record?
**A.** -0.232

**Q.** RRIRPRPPRLPRPRPRPHNCPRP was tested. Which “shrunken log2 fold change” value did it give?
**A.** -0.111

**Q.** For RRIRCRPPRLPRPRPRPHVHPRP, which “shrunken log2 fold change” value is on record?
**A.** -0.245

**Q.** How did the “shrunken log2 fold change” value turn out when RRIRGRPPRLPRPRPRPRSKPRP was run?
**A.** 0.781

**Q.** RRIRLRPPRLPRPRPRPYKLPRP was tested. Which “shrunken log2 fold change” value did it give?
**A.** -0.0961

**Q.** How did the “shrunken log2 fold change” value turn out when RRIRDRPPRLPRPRPRPAEDPRP was run?
**A.** -0.017

**Q.** With RRIRVRPPRLPRPRPRPIHQPRP as the sequence, how does the “shrunken log2 fold change” value read?
**A.** -0.166

**Q.** Which “shrunken log2 fold change” value does the source give for RRIRHRPPRLPRPRPRPGPYPRP here?
**A.** -0.226

**Q.** With RRIRCRPPRLPRPRPRPWDAPRP as the sequence, how does the “shrunken log2 fold change” value read?
**A.** -0.758

**Q.** How did the “shrunken log2 fold change” value turn out when RRIRERPPRLPRPRPRPQEWPRP was run?
**A.** -0.021

**Q.** How did the “shrunken log2 fold change” value turn out when RRIRNRPPRLPRPRPRPAFGPRP was run?
**A.** -0.189

**Q.** Which “shrunken log2 fold change” value does the source give for RRIRTRPPRLPRPRPRPVDKPRP here?
**A.** -0.362

**Q.** With RRIRFRPPRLPRPRPRPDASPRP as the sequence, how does the “shrunken log2 fold change” value read?
**A.** 0.146

**Q.** RRIRYRPPRLPRPRPRPDTYPRP was tested. Which “shrunken log2 fold change” value did it give?
**A.** -0.145

**Q.** With RRIRTRPPRLPRPRPRPNYKPRP as the sequence, how does the “shrunken log2 fold change” value read?
**A.** -0.823

**Q.** For RRIRWRPPRLPRPRPRPLHWPRP, which “shrunken log2 fold change” value is on record?
**A.** 0.296

**Q.** How did the “shrunken log2 fold change” value turn out when RRIRTRPPRLPRPRPRPSTSPRP was run?
**A.** -0.239
